# Test results: paper PMC10400941 (Proceedings of the National Academy of Sciences of the …, 2023)
# Columns and labels:
# [1] = biological target: the molecule itself; assay: SEC-MALS
# [2] = biological target: T1, RpnAL (E. coli, UniProt P31667 1-292); assay: SEC-MALS
# T1 sequence (looked up): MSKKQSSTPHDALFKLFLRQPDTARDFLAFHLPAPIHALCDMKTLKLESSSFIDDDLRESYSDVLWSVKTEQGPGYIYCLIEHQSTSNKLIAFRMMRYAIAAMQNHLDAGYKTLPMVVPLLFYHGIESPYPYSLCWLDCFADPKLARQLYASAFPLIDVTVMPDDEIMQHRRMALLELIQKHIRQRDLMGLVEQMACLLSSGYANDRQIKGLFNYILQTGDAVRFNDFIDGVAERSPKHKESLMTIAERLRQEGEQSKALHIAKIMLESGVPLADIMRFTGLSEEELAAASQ
binder,measurement,setting,value
"MTIAERLRQEGEQSKALHIAKIMLESGVPLADIMRFTGLSEEELAAASQ (domain or fragment, E. coli, UniProt P31667 244-292, looked up) [RpnAS]",stoichiometry N,[1],2
same,stoichiometry N,[2],1 RpnAS per RpnAL (2:2)
